How the values were obtained:
cFN^ΔRGD (mouse) = cFN^ΔRGD (mouse) (UniProt P11276)

## α5β1 integrin on pKO-β1 fibroblasts (from UniProt P11688 45-1053; P09055 21-798) (receptor)
cFN^ΔRGD (mouse)
  spreading area of the adherent fibroblasts on the purified cFN variant: 136 µm^2

B1: α5β1 integrin on pKO-β1 fibroblasts, P11688 45-1053; P09055 21-798 (receptor)
chain 1: FNLDAEAPAVLSGPPGSLFGFSVEFYRPGRDGVSVLVGAPKANTSQPGVLQGGAVYVCPWGTSPIQCTTIQFDSKGSRILESSLYSAKGEEPVEYKSLQWFGATVRAHGSSILACAPLYSWRTEKDPQNDPVGTCYLSTENFTRILEYAPCRSDFGSAAGQGYCQGGFSAEFTKTGRVVLGGPGSYFWQGQILSATQEQISESYYPEYLINPVQGQLQTRQASSVYDDSYLGYSVAVGEFSGDDTEDFVAGVPKGNLTYGYVTVLNGSDIHSLYNVSGEQMASYFGYAVAATDTNGDGLDDLLVGAPLLMERTADGRPQEVGRVYIYLQRPAGIDPTPTLTLTGQDEFSRFGSSLTPLGDLDQDGYNDVAIGAPFGGEAQQGVVFIFPGGPGGLSTKPSQVLQPLWAAGRTPDFFGSALRGGRDLDGNGYPDLIVGSFGVDKALVYRGRPIISASASLTIFPSMFNPEERSCSLEGNPVSCINLSFCLNASGKHVPNSIGFEVELQLDWQKQKGGVRRALFLTSKQATLTQTLLIQNGAREDCREMKIYLRNESEFRDKLSPIHIALNFSLDPKAPMDSHGLRPVLHYQSKSRIEDKAQILLDCGEDNICVPDLQLDVYGEKKHVYLGDKNALNLTFHAQNLGEGGAYEAELRVTAPLEAEYSGLVRHPGNFSSLSCDYFAVNQSRQLVCDLGNPMKAGTSLWGGLRFTVPHLQDTKKTIQFDFQILSKNLNNSQSNVVSFPLSVEAQAQVSLNGVSKPEAVIFPVSDWNPQDQPQKEEDLGPAVHHVYELINQGPSSISQGVLELSCPQALEGQQLLYVTKVTGLSNCTSNYTPNSQGLELDPETSPHHLQKREAPGRSSTASGTQVLKCPEAKCFRLRCEFGPLHRQESRSLQLHFRVWAKTFLQREYQPFSLQCEAVYEALKMPYQILPRQLPQKKLQVATAVQWTKAEGSNGVPLWIIILAILFGLLLLGLLIYVLYKLGFFKRSLPYGTAMEKAQLKPPATSDA
chain 2: QTDKNRCLKANAKSCGECIQAGPNCGWCTNTTFLQEGMPTSARCDDLEALKKKGCQPSDIENPRGSQTIKKNKNVTNRSKGMAEKLRPEDITQIQPQQLLLKLRSGEPQKFTLKFKRAEDYPIDLYYLMDLSYSMKDDLENVKSLGTDLMNEMRRITSDFRIGFGSFVEKTVMPYISTTPAKLRNPCTSEQNCTSPFSYKNVLSLTDRGEFFNELVGQQRISGNLDSPEGGFDAIMQVAVCGSLIGWRNVTRLLVFSTDAGFHFAGDGKLGGIVLPNDGQCHLENNVYTMSHYYDYPSIAHLVQKLSENNIQTIFAVTEEFQPVYKELKNLIPKSAVGTLSGNSSNVIQLIIDAYNSLSSEVILENSKLPDGVTINYKSYCKNGVNGTGENGRKCSNISIGDEVQFEISITANKCPNKESETIKIKPLGFTEEVEVVLQFICKCNCQSHGIPASPKCHEGNGTFECGACRCNEGRVGRHCECSTDEVNSEDMDAYCRKENSSEICSNNGECVCGQCVCRKRDNTNEIYSGKFCECDNFNCDRSNGLICGGNGVCRCRVCECYPNYTGSACDCSLDTGPCLASNGQICNGRGICECGACKCTDPKFQGPTCETCQTCLGVCAEHKECVQCRAFNKGEKKDTCAQECSHFNLTKVESREKLPQPVQVDPVTHCKEKDIDDCWFYFTYSVNGNNEAIVHVVETPDCPTGPDIIPIVAGVVAGIVLIGLALLLIWKLLMIIHDRREFAKFEKEKMNAKWDTGENPIYKSAVTTVVNPKYEGK
cFN^RGE (mouse), P11276
cFN^RGE (mouse), P11276, sequence (P11276 33-2477): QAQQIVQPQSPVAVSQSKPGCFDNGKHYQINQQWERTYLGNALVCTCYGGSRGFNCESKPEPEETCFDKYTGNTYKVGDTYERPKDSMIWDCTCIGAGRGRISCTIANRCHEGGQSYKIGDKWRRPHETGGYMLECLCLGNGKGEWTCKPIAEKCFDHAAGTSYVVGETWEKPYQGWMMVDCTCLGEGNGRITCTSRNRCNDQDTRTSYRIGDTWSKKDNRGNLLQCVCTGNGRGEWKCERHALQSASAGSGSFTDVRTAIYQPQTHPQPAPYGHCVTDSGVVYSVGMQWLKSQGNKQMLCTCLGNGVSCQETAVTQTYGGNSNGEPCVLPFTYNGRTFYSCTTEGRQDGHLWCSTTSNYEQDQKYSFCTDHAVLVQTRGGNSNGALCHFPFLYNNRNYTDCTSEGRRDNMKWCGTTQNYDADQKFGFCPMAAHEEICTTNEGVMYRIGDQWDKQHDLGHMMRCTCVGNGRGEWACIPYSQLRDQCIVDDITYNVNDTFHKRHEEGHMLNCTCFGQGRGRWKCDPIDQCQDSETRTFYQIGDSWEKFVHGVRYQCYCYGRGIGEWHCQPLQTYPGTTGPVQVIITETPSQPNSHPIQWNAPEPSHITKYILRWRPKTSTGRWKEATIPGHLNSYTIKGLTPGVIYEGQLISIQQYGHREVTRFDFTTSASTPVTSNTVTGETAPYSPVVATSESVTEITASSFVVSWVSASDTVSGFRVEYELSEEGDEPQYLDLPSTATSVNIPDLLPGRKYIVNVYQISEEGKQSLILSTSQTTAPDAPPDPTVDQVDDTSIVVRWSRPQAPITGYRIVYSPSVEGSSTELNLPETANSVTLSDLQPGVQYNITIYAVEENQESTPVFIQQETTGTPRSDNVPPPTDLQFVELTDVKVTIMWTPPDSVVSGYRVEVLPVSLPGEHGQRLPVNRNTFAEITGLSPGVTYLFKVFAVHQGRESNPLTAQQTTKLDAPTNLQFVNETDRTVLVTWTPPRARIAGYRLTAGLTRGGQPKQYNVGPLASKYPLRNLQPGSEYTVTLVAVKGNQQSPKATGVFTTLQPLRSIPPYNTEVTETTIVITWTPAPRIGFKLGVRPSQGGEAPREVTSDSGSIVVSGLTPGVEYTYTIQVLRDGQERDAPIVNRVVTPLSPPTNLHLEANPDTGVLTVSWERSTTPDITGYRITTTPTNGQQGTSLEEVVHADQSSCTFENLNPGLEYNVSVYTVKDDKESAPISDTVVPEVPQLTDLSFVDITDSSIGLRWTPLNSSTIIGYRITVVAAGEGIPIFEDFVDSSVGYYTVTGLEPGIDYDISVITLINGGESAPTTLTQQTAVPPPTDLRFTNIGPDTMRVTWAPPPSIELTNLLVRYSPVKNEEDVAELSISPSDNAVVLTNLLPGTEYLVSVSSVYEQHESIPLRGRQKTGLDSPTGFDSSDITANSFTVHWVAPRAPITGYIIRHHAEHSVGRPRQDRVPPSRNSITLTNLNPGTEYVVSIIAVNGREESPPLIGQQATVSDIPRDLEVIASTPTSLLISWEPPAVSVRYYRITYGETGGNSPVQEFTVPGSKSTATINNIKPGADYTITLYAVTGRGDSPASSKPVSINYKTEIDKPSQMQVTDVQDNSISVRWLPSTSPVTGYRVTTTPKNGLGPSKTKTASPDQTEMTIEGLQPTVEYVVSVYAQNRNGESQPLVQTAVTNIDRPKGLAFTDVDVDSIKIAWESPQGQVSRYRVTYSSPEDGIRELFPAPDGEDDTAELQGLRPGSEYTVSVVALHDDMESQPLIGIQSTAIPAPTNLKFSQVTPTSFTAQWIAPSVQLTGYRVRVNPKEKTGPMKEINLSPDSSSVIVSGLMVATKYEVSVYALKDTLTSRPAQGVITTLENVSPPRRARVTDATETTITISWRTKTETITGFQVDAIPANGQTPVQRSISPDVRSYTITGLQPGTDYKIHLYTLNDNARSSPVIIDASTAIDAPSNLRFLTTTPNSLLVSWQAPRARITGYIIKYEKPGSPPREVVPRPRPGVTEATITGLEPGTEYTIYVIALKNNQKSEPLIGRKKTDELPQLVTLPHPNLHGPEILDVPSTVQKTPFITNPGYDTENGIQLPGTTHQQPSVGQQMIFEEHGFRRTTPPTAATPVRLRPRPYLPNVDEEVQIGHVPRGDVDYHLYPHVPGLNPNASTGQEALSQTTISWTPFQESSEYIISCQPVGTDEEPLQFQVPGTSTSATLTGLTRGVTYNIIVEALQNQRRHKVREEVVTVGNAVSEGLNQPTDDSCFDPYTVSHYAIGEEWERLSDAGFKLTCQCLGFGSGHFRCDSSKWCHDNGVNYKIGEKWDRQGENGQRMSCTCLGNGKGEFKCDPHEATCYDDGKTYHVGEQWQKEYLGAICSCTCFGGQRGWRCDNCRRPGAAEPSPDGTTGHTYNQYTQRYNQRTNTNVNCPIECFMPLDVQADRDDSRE
  spreading area of the few adherent fibroblasts on the purified cFN variant: 419 µm^2

Source: publication PMC7644020
